{
  "source": "patent US20260103488A1",
  "about": "(INTERK PEPTIDE THERAPEUTICS, published 2026)",
  "binders": {"B1": {"name": "rrrrrrrr (IKD00800) (peptide)", "peptide": "[dR][dR][dR][dR][dR][dR][dR][dR]-NH2", "modifications": "N-terminus assumed", "SMILES": "N=C(N)NCCC[C@@H](N)C(=O)N[C@H](CCCNC(=N)N)C(=O)N[C@H](CCCNC(=N)N)C(=O)N[C@H](CCCNC(=N)N)C(=O)N[C@H](CCCNC(=N)N)C(=O)N[C@H](CCCNC(=N)N)C(=O)N[C@H](CCCNC(=N)N)C(=O)N[C@H](CCCNC(=N)N)C(N)=O"}, "B2": {"name": "rrrrrrrrrrrrrr (IKD01400) (peptide)", "peptide": "[dR][dR][dR][dR][dR][dR][dR][dR][dR][dR][dR][dR][dR][dR]-NH2", "modifications": "N-terminus assumed", "SMILES": "N=C(N)NCCC[C@@H](N)C(=O)N[C@H](CCCNC(=N)N)C(=O)N[C@H](CCCNC(=N)N)C(=O)N[C@H](CCCNC(=N)N)C(=O)N[C@H](CCCNC(=N)N)C(=O)N[C@H](CCCNC(=N)N)C(=O)N[C@H](CCCNC(=N)N)C(=O)N[C@H](CCCNC(=N)N)C(=O)N[C@H](CCCNC(=N)N)C(=O)N[C@H](CCCNC(=N)N)C(=O)N[C@H](CCCNC(=N)N)C(=O)N[C@H](CCCNC(=N)N)C(=O)N[C@H](CCCNC(=N)N)C(=O)N[C@H](CCCNC(=N)N)C(N)=O"}, "B3": {"name": "rskaknply-rrrrrr (ID94600) (peptide)", "peptide": "[dR][dS][dK][dA][dK][dN][dP][dL][dY][dR][dR][dR][dR][dR][dR]-NH2", "modifications": "N-terminus assumed", "SMILES": "CC(C)C[C@@H](NC(=O)[C@H]1CCCN1C(=O)[C@@H](CC(N)=O)NC(=O)[C@@H](CCCCN)NC(=O)[C@@H](C)NC(=O)[C@@H](CCCCN)NC(=O)[C@@H](CO)NC(=O)[C@H](N)CCCNC(=N)N)C(=O)N[C@H](Cc1ccc(O)cc1)C(=O)N[C@H](CCCNC(=N)N)C(=O)N[C@H](CCCNC(=N)N)C(=O)N[C@H](CCCNC(=N)N)C(=O)N[C@H](CCCNC(=N)N)C(=O)N[C@H](CCCNC(=N)N)C(=O)N[C@H](CCCNC(=N)N)C(N)=O"}, "B4": {"name": "C-RSKAKNPLY-RRRRRR-C (Cyclised) (IK14500C) (peptide)", "peptide": "CRSKAKNPLYRRRRRRC", "modifications": "disulfide 1-17 (inferred); not fully specified; printed as C-RSKAKNPLY-RRRRRR-C (Cyclised)"}, "B5": {"name": "rrrrrrrrr-ylpnkaksr (IKR81400) (peptide)", "peptide": "[dR][dR][dR][dR][dR][dR][dR][dR][dR][dY][dL][dP][dN][dK][dA][dK][dS][dR]-NH2", "modifications": "N-terminus assumed", "SMILES": "CC(C)C[C@@H](NC(=O)[C@@H](Cc1ccc(O)cc1)NC(=O)[C@@H](CCCNC(=N)N)NC(=O)[C@@H](CCCNC(=N)N)NC(=O)[C@@H](CCCNC(=N)N)NC(=O)[C@@H](CCCNC(=N)N)NC(=O)[C@@H](CCCNC(=N)N)NC(=O)[C@@H](CCCNC(=N)N)NC(=O)[C@@H](CCCNC(=N)N)NC(=O)[C@@H](CCCNC(=N)N)NC(=O)[C@H](N)CCCNC(=N)N)C(=O)N1CCC[C@@H]1C(=O)N[C@H](CC(N)=O)C(=O)N[C@H](CCCCN)C(=O)N[C@H](C)C(=O)N[C@H](CCCCN)C(=O)N[C@H](CO)C(=O)N[C@H](CCCNC(=N)N)C(N)=O"}},
  "note": "Bridges are numbered along the chain shown (N, C = ends). Where no end group is shown, it is not given here. [ ]: non-standard residue; d: D form.",
  "data": [
    {"target": "Lck(h) (lymphocyte-specific protein tyrosine kinase) (human, UniProt P06239 1-509, limits assumed)", "sequence (P06239 whole entry)": "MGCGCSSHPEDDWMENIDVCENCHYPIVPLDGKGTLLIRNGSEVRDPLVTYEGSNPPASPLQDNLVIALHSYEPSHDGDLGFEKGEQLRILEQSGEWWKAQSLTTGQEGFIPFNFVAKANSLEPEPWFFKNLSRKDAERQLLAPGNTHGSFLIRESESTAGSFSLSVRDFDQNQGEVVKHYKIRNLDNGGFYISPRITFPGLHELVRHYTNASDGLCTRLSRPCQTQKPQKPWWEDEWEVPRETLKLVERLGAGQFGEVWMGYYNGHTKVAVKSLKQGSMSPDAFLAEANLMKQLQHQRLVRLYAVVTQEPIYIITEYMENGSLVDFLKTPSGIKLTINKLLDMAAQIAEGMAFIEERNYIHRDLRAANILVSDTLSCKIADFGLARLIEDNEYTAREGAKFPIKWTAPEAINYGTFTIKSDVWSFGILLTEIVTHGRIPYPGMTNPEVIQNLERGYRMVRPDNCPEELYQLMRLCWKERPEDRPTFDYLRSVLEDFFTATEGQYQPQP", "assay": "cell-based or functional assay", "values": [
      {"binder": "B1", "Lck activity relative to control (100%), in vitro kinase assay, peptide 1 µM": "80 % Lck activity relative to control"},
      {"binder": "KKKKKKKKKK-NH2", "note": "[KKKKKKKKKK (10Lys)]", "Lck activity relative to control (100%), in vitro kinase assay, peptide 1 µM": "161 % increase in Lck activity"},
      {"binder": "RRRRRRRRR-NH2", "note": "[RRRRRRRRR (IK00900)]", "Lck activity, percentage relative to control, in vitro kinase assay, peptide 1 µM": "325%"},
      {"binder": "B2", "Lck activity relative to control (100%), in vitro kinase assay, peptide 1 µM": "228 % Lck activity relative to control"},
      {"binder": "RRRRRRRRRSKAKNPLYR-NH2", "note": "[RRRRRRRRR-SKAKNPLYR (IK9R94S)]", "Lck activity, percentage relative to control, in vitro kinase assay, peptide 1 µM": "542 % increase in Lck activity"},
      {"binder": "RRRRRRRRRHHHHHHHHHH-NH2", "note": "[RRRRRRRRR-HHHHHHHHHH (IK00910)]", "Lck activity relative to control (100%), in vitro kinase assay, peptide 1 µM": "348 % Lck activity relative to control"},
      {"binder": "RRRRRRRRRRRR-NH2", "note": "[RRRRRRRRRRRR (IK01200)]", "Lck activity relative to control (100%), in vitro kinase assay, peptide 1 µM": "401 % Lck activity relative to control"},
      {"binder": "RRRRRRRRRYLPNKAKSR-NH2", "note": "[RRRRRRRRR-YLPNKAKSR (IK9R94Y)]", "Lck activity, percentage relative to control, in vitro kinase assay, peptide 1 µM": "630 % increase in Lck activity"},
      {"binder": "RSKAKNPLYRRRRRRRRR-NH2", "note": "[RSKAKNPLY-RRRRRRRRR-NH2 (IK14800)]", "Lck activity, percentage relative to control, in vitro kinase assay, peptide 1 µM": "496%"},
      {"binder": "RSKAKNPLYRRRRR-NH2", "note": "[RSKAKNPLY-RRRRR (IK14400)]", "Lck activity, percentage relative to control, in vitro kinase assay, peptide 1 µM": "85%"},
      {"binder": "RSKAKRRRRRRRRR-NH2", "note": "[RSKAK-RRRRRRRRR (IK50900)]", "Lck activity, percentage relative to control, in vitro kinase assay, peptide 1 µM": "531 % increase in Lck activity"},
      {"binder": "B3", "Lck activity, percentage relative to control, in vitro kinase assay, peptide 1 µM": "60 % increase in Lck activity"},
      {"binder": "HHHHHRSKAKNPLYRRRRRRRRR-NH2", "note": "[HHHHH-RSKAKNPLY-RRRRRRRRR (IK11480)]", "Lck activity, percentage relative to control, in vitro kinase assay, peptide 1 µM": "883 % increase in Lck activity"},
      {"binder": "RSKAKNPLYKKKKKKKKK-NH2", "note": "[RSKAKNPLY-KKKKKKKKK (IK94K90)]", "Lck activity, percentage relative to control, in vitro kinase assay, peptide 1 µM": "49 % increase in Lck activity"},
      {"binder": "RSKAKNPLYRHHHHHHHHHH-NH2", "note": "[RSKAKNPLY-RHHHHHHHHHH (IK14010)]", "Lck activity, percentage relative to control, in vitro kinase assay, peptide 1 µM": "30 % increase in Lck activity"},
      {"binder": "RSKAKNPLYRRRRRR-NH2", "note": "[RSKAKNPLY-RRRRRR (IK14500)]", "Lck activity, percentage relative to control, in vitro kinase assay, peptide 1 µM": "82%"},
      {"binder": "B4", "Lck activity, percentage relative to control, in vitro kinase assay, peptide 1 µM": "221%"},
      {"binder": "RSKAK-NH2", "note": "[RSKAK (IK5000)]", "Lck activity, percentage relative to control, in vitro kinase assay, peptide 1 µM": "5 % activation of Lck relative to control"},
      {"binder": "RSKAKNPLYRRRRRRRRRHHHHHHHHHH-NH2", "note": "[RSKAKNPLY-RRRRRRRRR-HHHHHHHHHH (IK14810)]", "Lck activity, percentage relative to control, in vitro kinase assay, peptide 1 µM": "899 % increase in Lck activity"},
      {"binder": "B5", "Lck activity, percentage relative to control, in vitro kinase assay, peptide 1 µM": "616 % increase in Lck activity"},
      {"binder": "RSKAKRR-NH2", "note": "[RSKAK-RR (IK50200)]", "Lck activity, percentage relative to control, in vitro kinase assay, peptide 1 µM": "5 % activation of Lck relative to control"}
    ]}
  ]
}
